System: lung-resident ILCs
Assay: SMART-Seq2 plate-based scRNA-seq of lung-resident ILCs from PBS-, IL-25- or IL-33-treated mice, differential gene expression by logistic regression (Tables 3, 4)
Type: in vivo, mouse
Description: Mice and in vivo ILC activation. C57B1/6J mice were purchased from the Jackson Laboratory. Nmur1-LacZ reporter mice with a LacZ cassette knocked into the Nmur1 locus were rederived from Nmur1^tm1.1(KOMP)Vlcg sperm obtained from the trans-NIH Knock-Out Mouse Project (KOMP) Repository. NMU-deficient mice (NMU-KO) were rederived from B6.129S2-Nmu<tm1Mko> embryos from the RIKEN BioResource Center. For experiments with Nmur1-LacZ (Nmur1-KO) and NMU-KO mice, littermates that were either homozygous or heterozygous for the wild type allele were used as controls. Mice were housed under specific-pathogen-free conditions. For experiments, mice were matched for sex and age, and most mice were 6-10 weeks old. Where indicated, mice were anesthetized with Isoflurane and treated intranasally with the indicated stimuli (500 ng IL-25, 500 ng IL-33, or 20 μg Neuromedin U) daily for three consecutive days. The total administered volume was 20 μl for all conditions. Mice were randomly assigned to treatment groups after matching for sex and age. […] Mice were treated intranasally with 10 μg HDM on day 0, 7, 8, and 9, prior to sacrifice on day 10. All experiments were conducted in accordance with animal protocols approved by the Harvard Medical Area Standing Committee on Animals or BWH IACUC.
Fluorescence-activated cell sorting of innate lymphoid cells. After dissociation, single cell suspensions were incubated with CD90.2 MicroBeads (Miltenyi Biotec) on ice and enriched for CD90.2^+ cells by magnetic separation using LS columns according to the manufacturer's protocol. CD90.2^+ lung cells were then stained on ice with antibodies for sorting. ILCs were defined as 7AAD^− CD45^+ CD90.2^+ CD127^+ Lineage (CD11b, CD11c, CD19, NK1.1, […], CD4, CD8a, TCRβ, TCRγδ)^− cells and sorted on a BD FACS Aria (BD Biosciences).
For full-length scRNA-Seq, single ILCs were sorted into 96-well plates containing 5 ul TCL Buffer (QIAGEN) with 1% 2-Mercaptoethanol, centrifuged and frozen at −80° C. SMART-Seq2 protocol was carried out as previously described^23 with minor modifications in the reverse transcription step. cDNA was amplified with 22 cycles and fragmented with one-eighth of the standard Illumina NexteraXT reaction volume. Single-cell libraries were pooled and paired-end sequenced (38 bp×2) with a 75 cycle Nextseq 500 high output V2 kit.
Analysis of SMART-Seq2 plate-based scRNA-Seq data. Reads were aligned to mm10 using Kallisto (Bray, N. L., Pimentel, H., Meisted, P. & Pachter, L. Near-optimal probabilistic RNA-seq quantification. Nat Biotechnol 134, 525-527, doi:10.1038/nbt.3519 (2016)) quant, version 0.42.3. The R package tximport (Soneson, C., Love, M. I. & Robinson, M. D. Differential analyses for RNA-seq: transcript-level estimates improve gene-level inferences [version 2; referees: 2 approved]. F1000Research 4, doi:10.12688/f1000research.7563.2 (2016)), version 1.2.0, was used to convert the output to gene counts and traditional TPM values. Because of the variability in read counts per cell across plates, even from the same condition, as well as in the number of genes per cell across conditions, QC was performed for each of eight plates individually in order to remove cells that were outliers with respect to either measure. Out of 752 cells, 606 cells met QC criteria (234 from control, 152 from IL-25 treated mice, and 220 from IL-33 treated mice), and the number of genes per cell in this set ranged from 1,625 to 6,375. Genes that were not expressed with log(TPM)>2.5 in at least two cells were removed from further analysis. Subsequent analysis proceeded analogously to the droplet-based RNA-seq analysis, with parameter settings that reflected both the wider dynamic range of expression and much smaller cell numbers. The minimum ILC signature score required in ILC type assignment was 0.3. Variable genes were identified by running MeanVarPlot with x.low.cutoff=0.1, y.cutoff=1.5, and x.high.cutoff=10, resulting in a set of 519 genes. […]

B1: IL25 (protein, UniProt Q8VHH8 17-169, looked up)
Interleukin-25: VSLRIQEGCSHLPSCCPSKEQEPPEEWLKWSSASVSPPEPLSHTHHAESCRASKDGPLNSRAISPWSYELDRDLNRVPQDLYHARCLCPHCVSLQTGSHMDPLGNSVPLYHNQTVFYRRPCHGEEGTHRRYCLERRLYRVSLACVCVRPRVMA
In the case of B1, the Med16 expression coeff is reported as −0.61, the Mfsd1 expression coeff is reported as 1.25 and the Mgat1 expression coeff is reported as 1.24. It also gave a Mgat5 expression coeff of 1.02, a Mier3 expression coeff of −0.901 and a Mkl2 expression coeff of −1.12. The Mlec expression coeff was 0.715, the Morc3 expression coeff was 0.662 and the Mov10 expression coeff was 1.08. For the same molecule, the Mplkip expression coeff was −0.607, the Mrp63 expression coeff was 1.09 and the Mrpl40 expression coeff was −0.837. The Mrpl52 expression coeff was 0.158, the Mrpl53 expression coeff was −1.87 and the Mrps18a expression coeff was −1.24. The Ms4a4b expression coeff was 3.49, the Ms4a6b expression coeff was 3.22 and the Mtfmt expression coeff was −2.15. For the same molecule, the Mxd1 expression coeff was 0.448, the Mybbp1a expression coeff was −0.514 and the Myg1 expression coeff was −1.33. The Myo1f expression coeff was 0.897, the Myo1g expression coeff was 0.257 and the Naa60 expression coeff was 0.241. For the same molecule, the Nbn expression coeff was −0.499, the Ndufaf3 expression coeff was 1.45 and the Neu3 expression coeff was −2.64. It also gave a Nfil3 expression coeff of 2.04, a Nipal1 expression coeff of 1.61 and a Nlrc5 expression coeff of 0.93. It also gave a Nol6 expression coeff of −1.65, a Nol9 expression coeff of −0.775 and a Nop56 expression coeff of −0.619. For the same molecule, the Npc2 expression coeff was 0.143, the Npnt expression coeff was 0.056 and the Nrip1 expression coeff was 0.668. For the same molecule, the Nsmaf expression coeff was 1.41, the Oas1a expression coeff was 0.0294 and the Ogfr expression coeff was 0.578. For the same molecule, the Omd expression coeff was −1.12, the Parp3 expression coeff was 0.335 and the Parp10 expression coeff was 0.371. It also gave a Parp14 expression coeff of 0.934, a Paxip1 expression coeff of −1.15 and a Pdcd1 expression coeff of 1.04. The Pde4b expression coeff was 0.735, the Per1 expression coeff was −0.785 and the Pfas expression coeff was −0.546. It also gave a Phc3 expression coeff of 0.476, a Phf11a expression coeff of 1.52 and a Phf11b expression coeff of 1.38. For the same molecule, the Picalm expression coeff was 1.79, the Pigv expression coeff was −2.73 and the Pin4 expression coeff was 0.928. It also gave a Plac8 expression coeff of 0.268, a Plekha5 expression coeff of −1.01 and a Plxdc2 expression coeff of −0.906. The Pml expression coeff was 1.04, the Ppif expression coeff was −1.14 and the Ppp1r15a expression coeff was 0.186. For the same molecule, the Pydc4 expression coeff was 1.52, the Pyhin1 expression coeff was 0.623 and the Rab7l1 expression coeff was 1.18. For the same molecule, the Rab8b expression coeff was 1.5, the Rab33b expression coeff was −1.3 and the Rdh1 expression coeff was −2.49. It also gave a Rdh13 expression coeff of −1.37, a Rilpl2 expression coeff of 1.4 and a Rnf125 expression coeff of 1.65. The Rtp4 expression coeff was 0.866, the Samd9l expression coeff was 0.773 and the Sbno2 expression coeff was 1.09. It also gave a Sdc4 expression coeff of 0.206, a Sdccag3 expression coeff of 0.312 and a Sema4a expression coeff of −0.348. For the same molecule, the Sema4d expression coeff was 0.548, the Sesn3 expression coeff was 0.328 and the Shank2 expression coeff was −3.19. The Sipa1 expression coeff was 1.56, the Slc25a24 expression coeff was 0.607 and the Slc44a2 expression coeff was 0.294. For the same molecule, the Slfn2 expression coeff was 0.267, the Smn1 expression coeff was −1.53 and the Sntb1 expression coeff was 1.29. For the same molecule, the Soat1 expression coeff was 0.339, the Socs1 expression coeff was −1.36 and the Socs2 expression coeff was −0.923. The Socs3 expression coeff was 1.02, the Sp100 expression coeff was 0.451 and the Sptssa expression coeff was −0.974. The Ssr3 expression coeff was 0.609, the St3gal6 expression coeff was −0.764 and the Stab1 expression coeff was 1.24. For the same molecule, the Stat1 expression coeff was 1.88, the Syt11 expression coeff was 0.291 and the Taf1d expression coeff was 1.28. For the same molecule, the Tango6 expression coeff was −1.32, the Tap1 expression coeff was 0.561 and the Tap2 expression coeff was 0.406. The Tet3 expression coeff was 1.62, the Tmem33 expression coeff was 1.18 and the Tmem176a expression coeff was −0.146. It also gave a Tmem176b expression coeff of −0.422, a Tmem209 expression coeff of −0.847 and a Tmem229b expression coeff of 0.199. For the same molecule, the Tnfrsf18 expression coeff was −1.25, the Tnfsf10 expression coeff was −1.18 and the Tpm4 expression coeff was 0.311. The Tradd expression coeff was 0.964, the Trafd1 expression coeff was 0.993 and the Trim12c expression coeff was 0.974. It also gave a Trim30a expression coeff of 1.17, a Trim34a expression coeff of 0.632 and a Trim30d expression coeff of 0.527. The Trip13 expression coeff was −1.91, the Trp53inp1 expression coeff was 1.28 and the Ttc19 expression coeff was 0.891. It also gave a Ttc39b expression coeff of 0.546, a Ube2h expression coeff of 0.767 and a Usp18 expression coeff of 1.1. It also gave a Usp36 expression coeff of −0.645, a Vdr expression coeff of −0.748 and a Vmp1 expression coeff of 1.49. It also gave a Xrcc3 expression coeff of −1.4, a Zbp1 expression coeff of 0.971 and a Zc3h12a expression coeff of −1.14. The Zcchc10 expression coeff was −1.82, the Zfand6 expression coeff was 0.659 and the Zfc3h1 expression coeff was 0.466. For the same molecule, the Zfp110 expression coeff was −0.396 and the Zfp825 expression coeff was −1.4.

Source: patent US20210386829A1, “COMPOSITIONS AND METHODS FOR MODULATING CGRP SIGNALING TO REGULATE INNATE LYMPHOID CELL INFLAMMATORY RESPONSES” (The Broad Institute, Inc., priority 2018, published 2021)
